Source: patent publication US20240343824A1 (MERUS N V, published 2024)

What was measured:
[1] = target: human ZNRF3(ECD) on Freestyle 293F cells (human); assay: FACS on a mix of DiD-labelled ZNRF3 over-expressing and unlabelled parental 293F Freestyle cells, secondary reagents (anti-M13 and Strep-PE) only; Q3 0,120% [continued]
[2] = target: T1, full length human LGR5-FLAG-HA on Freestyle 293F or CHO-K1 cells (human, UniProt O75473 22-907); assay: competition FACS on CHO-K1 cells over-expressing human LGR5; competitor PG7711p02 (OMP88R20 copy) fixed at 50 ng/ml, detected with anti-human IgG PE; MFI normalised to no R-spondin1
T1 construct: also called hLGR5; hLGR5(FL)
T1 sequence: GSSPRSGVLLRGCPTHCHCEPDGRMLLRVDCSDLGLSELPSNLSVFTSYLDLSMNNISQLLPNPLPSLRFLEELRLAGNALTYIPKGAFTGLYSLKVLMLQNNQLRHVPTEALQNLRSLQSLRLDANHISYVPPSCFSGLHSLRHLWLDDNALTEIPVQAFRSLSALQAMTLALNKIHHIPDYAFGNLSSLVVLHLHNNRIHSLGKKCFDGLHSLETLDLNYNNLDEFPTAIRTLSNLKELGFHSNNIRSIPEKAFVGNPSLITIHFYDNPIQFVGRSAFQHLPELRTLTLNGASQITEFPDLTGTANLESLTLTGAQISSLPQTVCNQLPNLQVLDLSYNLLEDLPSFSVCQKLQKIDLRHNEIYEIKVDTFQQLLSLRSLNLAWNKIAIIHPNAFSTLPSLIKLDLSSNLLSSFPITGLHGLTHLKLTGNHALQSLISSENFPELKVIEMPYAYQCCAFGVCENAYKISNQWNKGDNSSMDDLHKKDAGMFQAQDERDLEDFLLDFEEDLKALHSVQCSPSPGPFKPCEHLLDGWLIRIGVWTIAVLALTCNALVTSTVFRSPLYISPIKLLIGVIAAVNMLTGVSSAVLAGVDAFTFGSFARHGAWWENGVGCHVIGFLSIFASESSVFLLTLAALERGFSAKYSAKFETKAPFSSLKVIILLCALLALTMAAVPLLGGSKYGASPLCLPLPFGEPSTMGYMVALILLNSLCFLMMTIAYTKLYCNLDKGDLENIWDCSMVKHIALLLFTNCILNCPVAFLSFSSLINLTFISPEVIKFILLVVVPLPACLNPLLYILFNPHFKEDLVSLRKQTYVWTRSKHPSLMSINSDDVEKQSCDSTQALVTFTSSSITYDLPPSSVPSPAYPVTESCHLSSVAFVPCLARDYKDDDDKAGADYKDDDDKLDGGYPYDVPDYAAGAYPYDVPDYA

[3] = target: T2, recombinant human LGR5-Fc (human, UniProt O75473 22-561); assay: R-Spondin3 blocking ELISA: 0,031 µg/ml rhLGR5-Fc on 2 µg/ml coated rhR-Spondin3, competitor 15 µg/ml soluble R-Spondin3, detection anti-Fc, OD450 normalised to maximum binding
T2 construct: extracellular domain; also called rhLGR5-Fc (RND systems Cat. Nr. 8078-GP); not shown: Fc part of the bought fusion protein
T2 sequence (looked up): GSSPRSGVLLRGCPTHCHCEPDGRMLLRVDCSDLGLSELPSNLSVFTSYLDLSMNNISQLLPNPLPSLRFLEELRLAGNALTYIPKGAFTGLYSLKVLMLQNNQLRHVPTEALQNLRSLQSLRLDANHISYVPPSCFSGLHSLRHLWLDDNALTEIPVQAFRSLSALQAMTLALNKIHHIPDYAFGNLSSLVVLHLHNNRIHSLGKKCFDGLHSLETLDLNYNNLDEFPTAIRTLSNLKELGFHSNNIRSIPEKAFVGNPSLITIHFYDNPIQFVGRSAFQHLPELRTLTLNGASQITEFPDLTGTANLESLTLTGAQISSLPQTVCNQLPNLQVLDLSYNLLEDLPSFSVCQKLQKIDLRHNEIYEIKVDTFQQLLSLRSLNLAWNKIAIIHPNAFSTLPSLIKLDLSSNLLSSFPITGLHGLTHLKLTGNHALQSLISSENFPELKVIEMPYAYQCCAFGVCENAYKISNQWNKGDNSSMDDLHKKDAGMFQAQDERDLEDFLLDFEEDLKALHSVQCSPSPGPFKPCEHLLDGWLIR

human ZNRF3(ECD) on Freestyle 293F cells (human), sequence (chain, as listed by the source): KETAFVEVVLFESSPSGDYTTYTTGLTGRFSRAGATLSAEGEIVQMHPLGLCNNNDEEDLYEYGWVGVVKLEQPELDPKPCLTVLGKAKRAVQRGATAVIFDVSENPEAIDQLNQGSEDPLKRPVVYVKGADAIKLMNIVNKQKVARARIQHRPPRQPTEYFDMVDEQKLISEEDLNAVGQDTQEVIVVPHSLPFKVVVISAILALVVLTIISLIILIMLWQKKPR

In the case of -Control, the % of events in Q2 (DiD-positive and PE-positive) [1] is reported as 0.18%.

B1: R-spondin1 (ligand, UniProt Q2MKA7 21-263, looked up)
chain: SRGIKGKRQRRISAEGSQACAKGCELCSEVNGCLKCSPKLFILLERNDIRQVGVCLPSCPPGYFDARNPDMNKCIKCKIEHCEACFSHNFCTKCKEGLYLHKGRCYPACPEGSSAANGTMECSSPAQCEMSEWSPWGPCSKKQQLCGFRRGSEERTRRVLHAPVGDHAACSDTKETRRCTVRRVPCPEGQKRRKGGQGRRENANRNLARKESKEAGAGSRRRKGQQQQQQQGTVGPLTSAGPA
notes: also called RSPO1; R-spondin1 (R&D Systems, cat. nr. 4645-RF/CF)
In the case of B1, the “IC50 (read off the curve)” value [2] is reported as about 10 nM.

B2: recombinant human R-Spondin3 (ligand, UniProt Q9BXY4 22-272, looked up)
chain: QNASRGRRQRRMHPNVSQGCQGGCATCSDYNGCLSCKPRLFFALERIGMKQIGVCLSSCPSGYYGTRYPDINKCTKCKADCDTCFNKNFCTKCKSGFYLHLGKCLDNCPEGLEANNHTMECVSIVHCEVSEWNPWSPCTKKGKTCGFKRGTETRVREIIQHPSAKGNLCPPTNETRKCTVQRKKCQKGERGKKGRERKRKKPNKGESKEAIPDSKSLESSKEIPEQRENKQQQKKRKVQDKQKSVSVSTVH
notes: also called rhR-Spondin3; R-Spondin3 (RND systems)
B2: binds [3].
